Test results as given in US20070042353A1, “HCV polymerase suitable for crystal structure analysis and method for using the enzyme” (Japan Tobacco Inc., priority 1999, published 2007).
Where no end group is shown, it is not given here.

Columns and labels:
HCV polymerase = test: Measurement of the HCV polymerase activity (3H-UTP incorporation into template RNA); type: biochemical, HCV-BK strain; conditions: radioactivity of the NS5B591 enzyme reaction as standard; polymerase 1 μg/ml, 25° C., 90 min
Description: The DNA fragment (148 bp) containing polyU and 3′ X sequence was completely synthesized using synthetic primers designed based on the sequence of the 3′ untranslational region of the HCV genome, and cloned into plasmid pBluescript SK II (+) (Stratagene). The cDNA encoding the full length NS5B prepared in the same manner as in Example 1 was digested with restriction enzyme KpnI to obtain the cDNA fragment covers the region from the restriction enzyme cleavage site to the stop codon. This cDNA fragment was ligated to the upstream of 3′ untranslational region DNA of pBluescript SK II (+). The DNA insert of about 450 bp in total was used as a template for preparing the template RNA. The plasmid was cleaved just after 3′ X sequence, circulated, treated with phenol/chloroform, and purified by ethanol precipitation to recover the DNA.
Using the purified DNA as a template, utilizing the promoter in pBluescript SK II (+), RNA was synthesized by the run-off method using MEGAscript RNA synthesis kit (Ambion), and T7 RNA polymerase (at 37° C. for 3 hours). DNaseI was added thereto and further incubated for 1 hour, and the template DNA was decomposed and removed to obtain the crude RNA product. The crude product was treated with phenol/chloroform, and purified by ethanol precipitation to obtain the desired template RNA. After confirming the quality of the RNA by agarose gel electrophoresis, the RNA was stored at −80° C. The RNA is a template suitable for the highly sensitive measurement of the polymerase activity. […]
The reaction was terminated by adding 10% trichloroacetic acid at 4° C. and 1% sodium diphosphate solution (150 μl) to the reaction mixture, and kept in ice for 15 min to precipitate the RNA. […] A liquid scintillation cocktail (Packard) was added to the RNA synthesized by the enzyme reaction, and the radioactivity of the RNA was measured by a liquid scintillation counter.
The activity of the HCV polymerase was calculated from the value of radioactivity in the enzyme reaction of each NS5B using the radioactivity in the enzyme reaction of NS5B591 as a standard.

NS5B544 = target: T1, NS5B544 (Hepatitis C virus genotype 1b, UniProt P26663); test: HCV polymerase-inhibitory activity of synthetic peptide, pre-incubated with NS5B544; type: biochemical, HCV-BK strain; conditions: final concentration of 30 μM; pre-incubated with NS5B544 at 25° C. for 30 minutes
T1 construct: residue 1 (Ser) of the NS5B, a C-terminal amino acid residue of X′ is any one of amino acid residues 531 (Lys) to 544 (Gln); made in house; host or cells: E. coli
Description: The reaction mixture with the composition mentioned below (30 μl) was reacted at 25° C. for 90 min. • Reaction mixture: the HCV polymerase obtained in Example 1 (1 μg/ml), the template RNA obtained in Example 5 (10 μg/ml), ATP (50 μM), GTP (50 μM), CTP (50 μM), UTP (2 μM), [5, 6-^3H] UTP (46 Ci/mmol (Amersham), 1.5 μCi), 20 mM Tris-HCl (pH 7.5), EDTA (1 mM), MgCl2 (5 mM), NaCl (50 mM), DTT (1 mM), BSA (0.01%).
The reaction was terminated by adding 10% trichloroacetic acid at 4° C. and 1% sodium diphosphate solution (150 μl) to the reaction mixture, and kept in ice for 15 min to precipitate the RNA. The RNA was trapped on a glass filter (Whatman, GF/C) by suction filtration. The filter was washed with a solution containing 1% trichloroacetic acid and 0.1% sodium diphosphate, then with 90% ethanol, and dried. A liquid scintillation cocktail (Packard) was added to the RNA synthesized by the enzyme reaction, and the radioactivity of the RNA was measured by a liquid scintillation counter.
Next, a synthetic peptide was prepared by a conventional method and its HCV polymerase-inhibitory activity was assessed. […] The synthetic peptide and NS5B544 were pre-incubated at 25° C. for 30 minutes, and the polymerase activity was measured in the same manner as in Example 5. […]

Substance | relative activity (%) (HCV polymerase) | inhibition of the polymerase activity (NS5B544) [%]
NS5B544: consecutive amino acid sequence 1-544 of NS5B with histidine tag GSHHDHHH | 2014 | 
NS5B536: consecutive amino acid sequence 1-536 of NS5B with histidine tag | 2107 | 
KDLSGWFK [positions 546 to 551 of HCV polymerase NS5B with a Lys residue attached to both ends] |  | 40 to 50
NS5B531: consecutive amino acid sequence 1-531 of NS5B with histidine tag | 2149 | 
